In the nanobody polyreactivity screen of Harvey et al. (2022):

Experiment: yeast display, Sf9 membrane polyspecificity reagent, FACS + sequencing; frameworks hold sequencing errors
Method in brief: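 Sorting gates, low and high (top ~1%), were placed on anti-HA fluorescence to track expression and on streptavidin fluorescence to track reagent binding. A clone's polyreactivity label is taken from the gate it came out of. The reagent was 10% biotinylated, detergent-solubilized Sf9 membrane, applied for 1 hour at 4 °C to galactose-induced yeast display cells.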

Sequence: QVQLVESGGGLVQAGGSLRLSCAASGSIFDFNAMGWYRQAPGKERELVAAITWGGGSTYYADSVKGRFTISRDNAKNTVYLQMNSLKPEDTAVYYCNAAYGRYRYDYWGQGTQVTVSS
- polyreactivity (PSR sort gate): low polyreactivity

Sequence: QVQLVESGGGLVQAGGSLRLSCAASGGIFRLYGMGWYRQAPGKERELVAAIRQSGGRTYYADSVKGRFTISRDNAKNTDYLQMNSLKPEDTAVYYCAADLLYRSSGTVRSDYSRYDYWGQGTQVTVSS
- polyreactivity (PSR sort gate): low polyreactivity

Sequence: QVQLVESGGGLVQAGGSLRLSCAASGRIFGRNAMGWYRQAPGKERELVAGISGRGGITYYADSVKGRFTISRDNAKNTVYLQMNSLKPEDTAVYYCAATGGDYYDFSYWGQGTQVTVSS
- polyreactivity (PSR sort gate): high polyreactivity

Sequence: QVQLVESGGGLVQAGGSLRLSCAASGSIFDVYGMGWYRQAPGKEREFVADITSRGTRTYYADSVKGRFTISRDNAKNTVYLQMNSLKPEDTAVYYCNADRYTAVRAYDYWGQGTQVTVSS
- polyreactivity (PSR sort gate): low polyreactivity

Sequence: QVQLVESGGGLVQAGGSLRLSCAASGRILGNNVMGWYRQAPGKERELVDAITSSGGRTYYADSVKGRFTISRDNAKNTVYLQMNSLKPEDTAVYYCAAERRYYGKFNYWGQGTQVTVSS
- polyreactivity (PSR sort gate): high polyreactivity

Sequence: QVQLVESGGGLVQAGGSLRLSCAASGYTLRYYAMGWYRQAPGKERELVAAITYSGGSTYYADSVKGRFTISRDHAKNTVYLQMNSLKPEDTAVYYCAADYRAPLDYWGQGTQVTVSS
- polyreactivity (PSR sort gate): low polyreactivity

Sequence: QVQHVESGGGLGQAGGSLRLSCAASGIIFPRYKAWYRPAPGKDRELVAAIRWSSDDTNYADSVKGRFTISRDNAKNTVYLQMNSLKPEDTAVYYCAADSYYDRTIQFEFSARTYDYWVQGTQVTVSS
- polyreactivity (PSR sort gate): low polyreactivity

Sequence: LVQLQESGGGLVQAGGSLRLSCAASGSIYKVVDMGLYRQAPAKEREFVATIGEGGNTYYADSVKGRFTISRDNAKNTVYLQMNSLKPEDTAVYYCNDDIGVYAYESDYWGQGTQVTVSS
- polyreactivity (PSR sort gate): low polyreactivity

Sequence: QVQLVESGGGVVQAGGSLRLSCAASGSTMGYYAMGWYRPAPGKERELVATITRSGGNTYYADSVKGRFTISRDNAKNTVYLQMNSLKPDDNAVYYCAARRLYGSQRGYWGHGTQVTVSS
- polyreactivity (PSR sort gate): high polyreactivity

Sequence: QVQLVESGGGLVQAGGSLRISCAASGITFYRYAMGWYRQAPGKEREFVAAINYGGSSTRYADSVKGRFTISRDNAKITVYLQMNSLKPEDTAVYYCAKVELARVEYDYWGQGTQVTVSS
- polyreactivity (PSR sort gate): low polyreactivity

Sequence: QVQLVESGGGLVQAGGSLRLSCAASGRIFAYNAMGWSRQAPGKERELVAAITWSGGTTYYADSVKGRFTISRDNAKNTVYLQMNSLKPEDTAVYYCAASRRYGGYRFDYWGQGTQVTVSS
- polyreactivity (PSR sort gate): high polyreactivity

Sequence: QVQLVESGGGLVQAGGSLRLSCAASGSIFDSNAMGWYRQAPGKERELVADIRGIGGSTYYADSVKGRFTISRDHAKNTVYLQMNSLKPEDTAVYYCNTSTLGGYYWGQGTQVTVSS
- polyreactivity (PSR sort gate): low polyreactivity

Sequence: QVQLVESGGGLVQAGGSLRLSCAAMGWYRQAPGKERELVATITWSGGSTYYADSVKGRFTISRDNAKNTVYLQMNSLKPEDTAVYYCNARATLLSPANTIRGYDYWGQGTQVTVSS
- polyreactivity (PSR sort gate): low polyreactivity

Sequence: QVQLVESGGGLVQAGGSLRLSCAASGRTFTRYTKGWYRQAPRKERDLVAASTRGGSTYADSVKGRFTNSRDNAKNTVYLEMNSLKPEDTAVYYCAAYWGFFPWRAYPYDYWGQGTQVTVSS
- polyreactivity (PSR sort gate): high polyreactivity

Sequence: QVQLVESGGGLVQAGGSLRLSCAASGRTFVYYAMVWSRQAPGKEREFVAAISRSGGRTSYADSVKGRFTISRDNAKNTVYLQMNSLKPEDTAVYYCAAENRTQPTSREYYWGQGNQVTVSS
- polyreactivity (PSR sort gate): high polyreactivity

Sequence: QVQLVESGGGLVQAGGSLRLSCAASGNTFEYYVMGWYRQAPGKERELVAAITWSTGSTYYADSVKGRFTISRDNAKNTVYLQMNSLKPEDTAVYYCAALYYFIFGRPTRFDYWGLGTQVTVSS
- polyreactivity (PSR sort gate): low polyreactivity

Sequence: QVQLVESGGGLVQAGGSLRLSCAASGFIIIGYFMGWYRQAPGKERELVAAITSSGGSTYYADSVKGRFTISRDNAKNTVYLQMNSLKPEDTAVYYCAARLYNSIYWGYYSWGPGTQVTVSS
- polyreactivity (PSR sort gate): low polyreactivity

Sequence: QEQHVESAGGLVQAGGSLRLSCAASASIIYKYAMGWYRQAPGKERELVAAINSGGRTYYADSVKGRFTISRDNAKNTVYLQMNSLKPEDTAVYYCNAGTYYPGRYDYWGQGTQVTVSS
- polyreactivity (PSR sort gate): high polyreactivity

Sequence: QVQLVESGGGLVQAGGSLRFSCAASGFTFYLYTMGWYRQAPGKDRELVAAINYSGGTTYYADSVKGRFTISRDNAKNTVYLQMNSLKPEDTAVYYCAATVGYSYNPRKNYYWGQGTQVTVSS
- polyreactivity (PSR sort gate): low polyreactivity

Sequence: QVQLVESGGGLVQAGGSLRLSCAPSGFTLSTYAMGWYRQAPGKERELVAAISRSTDRTYYADSVKGRFTISRDNAKNTVYLQMNSLKPEDTAVYYCAAKSVYYLYRFYYWGQGSQVTVSS
- polyreactivity (PSR sort gate): high polyreactivity

Sequence: QVQLVESGGGLVQAGGSRRLSCAPSGKIFGSNAMGSYRQAPGKERELVAAISKSCGRTYYADSVKGRFTISRDNAKNTVYLQMNCLKPEDSAVYYCGAYDGYYEFDYWGQGTQVPVSS
- polyreactivity (PSR sort gate): low polyreactivity

Sequence: QVQLVESGAGLVLAGGSLRLSCAASGRTFRLYAMGWYRQAPGKERELVAAISYSDGRTYYADSVKGRFTISRDNAKNTVYLQMNSLKPEDTAVYYCAAETLYVAGSYYWGQGTQVTVSS
- polyreactivity (PSR sort gate): high polyreactivity
